The values that follow are results of earlier work, collected in PMC2757418.

The target of the data set is netrin-1 (UniProt O95631).

In the case of DCC (from UniProt P43146), the Kd was 10 nM.
